Experimental data from patent US20220177579A1 (Memorial Sloan Kettering, published 2022).

Target: T1, human CD19 on CD19(+) NALM6 acute lymphoid leukemia cells (human, UniProt P15391 20-556)
T1 sequence: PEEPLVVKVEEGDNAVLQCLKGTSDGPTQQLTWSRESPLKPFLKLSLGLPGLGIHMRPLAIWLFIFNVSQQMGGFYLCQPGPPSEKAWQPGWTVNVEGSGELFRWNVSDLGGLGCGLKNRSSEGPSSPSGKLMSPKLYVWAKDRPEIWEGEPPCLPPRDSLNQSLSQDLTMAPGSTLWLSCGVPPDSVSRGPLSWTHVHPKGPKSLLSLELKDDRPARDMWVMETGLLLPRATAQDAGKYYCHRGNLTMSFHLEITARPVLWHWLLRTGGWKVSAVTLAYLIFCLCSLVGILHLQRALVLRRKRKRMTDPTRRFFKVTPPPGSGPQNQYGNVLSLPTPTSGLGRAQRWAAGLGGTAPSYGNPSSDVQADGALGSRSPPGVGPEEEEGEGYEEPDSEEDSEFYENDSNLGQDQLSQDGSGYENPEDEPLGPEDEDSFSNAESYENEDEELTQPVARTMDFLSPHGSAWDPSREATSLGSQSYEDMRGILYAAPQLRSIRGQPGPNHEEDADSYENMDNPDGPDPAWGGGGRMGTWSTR
Experiment: cell-based or functional assay

EC50 for cell lysis of NALM6 cells (standard 4-hour 51Cr release assay with activated T cells): 0.042 pM
B1: CD19-BsAb BC250 (hFMC63 VL-2/VH-1b x CD3 IgG-scFv bispecific antibody) (bispecific antibody)
heavy: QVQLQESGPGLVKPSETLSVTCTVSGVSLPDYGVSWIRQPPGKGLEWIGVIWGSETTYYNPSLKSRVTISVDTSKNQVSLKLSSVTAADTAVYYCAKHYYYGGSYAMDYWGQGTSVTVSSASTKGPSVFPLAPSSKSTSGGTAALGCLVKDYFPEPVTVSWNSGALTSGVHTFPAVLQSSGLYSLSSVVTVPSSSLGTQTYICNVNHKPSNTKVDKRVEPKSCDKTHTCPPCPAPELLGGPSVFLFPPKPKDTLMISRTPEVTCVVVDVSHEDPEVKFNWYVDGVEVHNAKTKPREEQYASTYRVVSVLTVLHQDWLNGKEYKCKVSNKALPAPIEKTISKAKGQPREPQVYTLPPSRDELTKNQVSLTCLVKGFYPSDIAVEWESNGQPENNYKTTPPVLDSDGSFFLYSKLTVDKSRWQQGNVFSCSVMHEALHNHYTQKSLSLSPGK
light: DIQMTQSPSSLSASVGDRVTITCQASQDISKYLNWYQQKPGKAVKLLIYHTSRLHSGVPSRFSGSGSGTDYTLTISSLQPEDIATYFCQQGNTLPYTFGGGTKLEITRTVAAPSVFIFPPSDEQLKSGTASVVCLLNNFYPREAKVQWKVDNALQSGNSQESVTEQDSKDSTYSLSSTLTLSKADYEKHKVYACEVTHQGLSSPVTKSFNRGECTSGGGGSGGGGSGGGGSQVQLVQSGGGVVQPGRSLRLSCKASGYTFTRYTMHWVRQAPGKCLEWIGYINPSRGYTNYNQKFKDRFTISRDNSKNTAFLQMDSLRPEDTGVYFCARYYDDHYSLDYWGQGTPVTVSSGGGGSGGGGSGGGGSGGGGSGGGGSGGGGSDIQMTQSPSSLSASVGDRVTITCSASSSVSYMNWYQQTPGKAPKRWIYDTSKLASGVPSRFSGSGSGTDYTFTISSLQPEDIATYYCQQWSSNPFTFGCGTKLQITR
